Test [1] addresses GST-FMRP C-terminus deleted from the last 63 amino acids (mouse). Nature of the test: pull-down; GST-fusion proteins made in yeast, immobilised on glutathione sepharose 4B beads and incubated at 4 °C with lysate of tsA-201 cells transfected with CaV2.2/α2δ-1/β1b; washed four times with ice-cold 1% Triton-PBS; blots with CaV2.2 II-III loop Ab and GST Ab; bands quantified as a percentage of CT.

The target in test [2] is GST-FMRP C-terminus deleted from the last 89 amino acids which includes the RGG motif (mouse). The test is described as above.

calcium channel CaV2.2, sequence (Q05152 whole entry): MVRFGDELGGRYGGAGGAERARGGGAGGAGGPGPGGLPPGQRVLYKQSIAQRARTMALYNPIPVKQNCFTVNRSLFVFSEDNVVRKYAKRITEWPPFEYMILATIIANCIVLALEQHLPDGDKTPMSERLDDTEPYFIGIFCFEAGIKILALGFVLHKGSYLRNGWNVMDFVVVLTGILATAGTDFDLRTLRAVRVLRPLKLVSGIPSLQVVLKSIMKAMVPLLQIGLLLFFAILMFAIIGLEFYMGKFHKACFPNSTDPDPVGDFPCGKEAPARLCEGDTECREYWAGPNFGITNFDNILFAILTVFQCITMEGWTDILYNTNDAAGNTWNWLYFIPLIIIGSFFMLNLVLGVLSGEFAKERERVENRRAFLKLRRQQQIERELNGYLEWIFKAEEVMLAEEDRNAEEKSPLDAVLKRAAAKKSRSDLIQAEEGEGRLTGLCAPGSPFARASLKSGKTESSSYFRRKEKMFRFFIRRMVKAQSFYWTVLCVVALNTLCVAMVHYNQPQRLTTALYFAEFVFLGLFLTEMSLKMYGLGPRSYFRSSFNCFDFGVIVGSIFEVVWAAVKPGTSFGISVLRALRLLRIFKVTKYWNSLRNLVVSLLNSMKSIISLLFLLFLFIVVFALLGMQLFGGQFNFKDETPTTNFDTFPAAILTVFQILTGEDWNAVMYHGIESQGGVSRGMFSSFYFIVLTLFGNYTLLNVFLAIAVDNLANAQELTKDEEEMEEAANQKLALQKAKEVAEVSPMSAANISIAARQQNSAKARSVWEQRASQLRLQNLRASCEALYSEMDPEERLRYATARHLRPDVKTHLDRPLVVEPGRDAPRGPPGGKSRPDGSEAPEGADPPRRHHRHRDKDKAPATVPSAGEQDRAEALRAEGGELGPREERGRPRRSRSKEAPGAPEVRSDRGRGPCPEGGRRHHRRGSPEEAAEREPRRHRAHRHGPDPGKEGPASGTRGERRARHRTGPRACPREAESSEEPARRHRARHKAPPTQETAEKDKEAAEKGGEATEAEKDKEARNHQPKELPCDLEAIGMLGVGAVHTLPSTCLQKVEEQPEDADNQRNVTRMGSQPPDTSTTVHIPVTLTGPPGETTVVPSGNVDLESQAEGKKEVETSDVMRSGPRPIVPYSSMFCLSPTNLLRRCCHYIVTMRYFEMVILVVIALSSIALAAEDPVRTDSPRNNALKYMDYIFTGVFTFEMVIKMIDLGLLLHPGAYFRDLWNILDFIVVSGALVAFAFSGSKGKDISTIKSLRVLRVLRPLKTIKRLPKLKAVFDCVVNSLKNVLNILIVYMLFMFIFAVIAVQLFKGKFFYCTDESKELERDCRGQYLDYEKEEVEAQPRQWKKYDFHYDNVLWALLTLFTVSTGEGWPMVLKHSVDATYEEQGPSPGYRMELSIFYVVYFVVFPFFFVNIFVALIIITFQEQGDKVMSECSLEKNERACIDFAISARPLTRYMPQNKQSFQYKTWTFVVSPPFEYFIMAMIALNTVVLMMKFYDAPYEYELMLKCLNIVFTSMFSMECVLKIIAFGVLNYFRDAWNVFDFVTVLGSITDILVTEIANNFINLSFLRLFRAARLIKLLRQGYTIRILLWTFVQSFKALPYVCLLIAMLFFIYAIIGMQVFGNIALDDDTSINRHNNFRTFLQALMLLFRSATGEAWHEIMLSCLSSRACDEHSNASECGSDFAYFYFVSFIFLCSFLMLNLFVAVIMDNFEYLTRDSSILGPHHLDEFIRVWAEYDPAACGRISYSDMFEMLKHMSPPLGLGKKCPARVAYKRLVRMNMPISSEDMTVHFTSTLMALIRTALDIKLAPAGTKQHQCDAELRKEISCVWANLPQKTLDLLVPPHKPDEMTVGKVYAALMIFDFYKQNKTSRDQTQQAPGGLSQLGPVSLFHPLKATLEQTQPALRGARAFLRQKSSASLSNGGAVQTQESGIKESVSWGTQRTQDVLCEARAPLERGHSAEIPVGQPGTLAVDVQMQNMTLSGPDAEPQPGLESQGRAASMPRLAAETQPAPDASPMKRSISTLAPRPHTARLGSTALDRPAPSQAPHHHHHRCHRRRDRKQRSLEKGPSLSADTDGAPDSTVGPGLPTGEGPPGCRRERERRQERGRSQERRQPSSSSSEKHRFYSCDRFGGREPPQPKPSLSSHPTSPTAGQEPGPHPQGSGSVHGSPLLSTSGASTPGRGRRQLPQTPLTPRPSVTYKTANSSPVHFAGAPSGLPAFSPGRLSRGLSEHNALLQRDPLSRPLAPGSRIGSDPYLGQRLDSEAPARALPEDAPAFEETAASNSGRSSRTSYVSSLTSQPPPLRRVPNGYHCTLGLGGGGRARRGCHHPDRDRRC

On to “calcium channel CaV2.2 (from UniProt Q05152 1-2339) (natural protein)”, for which the reduction of the binding relative to CT in test [1] came out at 61.7%; in test [2] it was 79.5%.

For the origin of these results see PMC7152798.
